Among the data in patent US20220119534A1 (DRAGONFLY THERAPEUTICS, published 2022) are Kd, koff and kon values, retold here.

The target in assay [1] is T1, Human CD16a V158 (FcγRIIIa V158) (human, UniProt P08637 17-208, biotinylated (site not stated)).
T1 construct: V158 is the allele name in mature numbering; also called hCD16aV; hCD16a V158
The experiment in a line: SPR; biotinylated CD16a V158 captured on SA chip, TriNKET as analyte; 1:1 kinetic fit; control sample.

Assay [2] deals with T2, mFc-hNKG2D (human, UniProt P26718 73-216).
T2 construct: extracellular domain; Made in house (Dragonfly Tx); the order of tag and ECD follows the name mFc-hNKG2D; also called mFc-tagged human NKG2D; not shown: mouse Fc tag
T2 sequence (looked up): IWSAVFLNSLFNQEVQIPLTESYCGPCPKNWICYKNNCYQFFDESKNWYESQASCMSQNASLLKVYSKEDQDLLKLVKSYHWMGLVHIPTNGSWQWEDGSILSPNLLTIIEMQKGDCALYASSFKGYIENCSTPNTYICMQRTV
Kind of assay: SPR Biacore 8K 37 C; mFc-hNKG2D captured on anti-mFc chip, TriNKET as analyte; kinetics fit.

Assay [3] concerns the target T2, mFc-hNKG2D. The experiment in a line: SPR Biacore 8K 37 C; mFc-hNKG2D captured on anti-mFc chip, TriNKET as analyte; steady state fit; control sample, n=3. For orientation: In SPR one partner is held on a chip, and binding of the other changes the refractive index at the surface.
Protocol: Association was monitored for 60 seconds and dissociation was monitored for 60 seconds. Surfaces were regenerated between cycles with three pulses of 10 mM glycine-HCl, pH 1.7 injected for 20 seconds at 100 μL/min. HBS-EP+ (1×) buffer was used throughout the experiment. Data were analyzed using Biacore 8K Insight evaluation software (GE Healthcare).
In assay [4] the target is T3, Human CLEC12A-His (human, UniProt Q5QGZ9 65-265).
T3 construct: Recombinant soluble protein made in house (Dragonfly Tx); The hCLEC12A spot of the HuProt array is written under this molecule as well; also called hCLEC12A-His; hCLEC12A; not shown: His tag
T3 sequence: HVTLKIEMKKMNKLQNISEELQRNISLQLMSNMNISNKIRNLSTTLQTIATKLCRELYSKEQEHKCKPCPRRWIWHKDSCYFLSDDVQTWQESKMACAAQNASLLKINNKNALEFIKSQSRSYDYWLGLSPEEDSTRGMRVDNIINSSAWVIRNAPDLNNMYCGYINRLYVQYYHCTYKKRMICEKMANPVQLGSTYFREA
The experiment in a line: SPR Biacore 8K 37 C; TriNKET captured on anti-hFc chip, hCLEC12A-His as analyte; 1:1 fit; after 4 wks 40 C in HST pH 6.0, n=2.

“And” between values parts separate entries of the source, which are not always exact repeats. Equal entries are not always repeated.

T1 sequence (P08637 17-208 F176V limits assumed): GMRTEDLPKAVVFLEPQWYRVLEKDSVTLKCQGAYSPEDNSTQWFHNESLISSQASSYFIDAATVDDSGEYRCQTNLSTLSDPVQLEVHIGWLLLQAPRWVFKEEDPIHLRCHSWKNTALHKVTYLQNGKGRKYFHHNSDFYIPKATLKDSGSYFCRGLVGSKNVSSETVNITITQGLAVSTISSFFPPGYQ

B1: F3'-1602 TriNKET (bispecific antibody, human IgG1, kappa)
chain: QLQLQESGPGLVKPSETLSLTCTVSGFSLTNYGLHWIRQPPGKCLEWIGVIWSGGKTDYNPSLKSRVTISKDTSKNQFSLKLSSVQAADTAVYYCAKYDYDDSLDYWGQGTLVTVSSGGGGSGGGGSGGGGSGGGGSDIQMTQSPSSLSASVGDRVTITCHASQNINFWLSWYQQKPGKAPKLLIYEASNLHTGVPSRFSGSGSGTRFTLTISSLQPEDIATYYCQQSHSYPLTFGCGTKLEIKGSDKTHTCPPCPAPELLGGPSVFLFPPKPKDTLMISRTPEVTCVVVDVSHEDPEVKFNWYVDGVEVHNAKTKPREEQYNSTYRVVSVLTVLHQDWLNGKEYKCKVSNKALPAPIEKTISKAKGQPREPRVYTLPPCRDELTKNQVSLTCLVKGFYPSDIAVEWESNGQPENNYKTTPPVLVSDGSFTLYSKLTVDKSRWQQGNVFSCSVMHEALHNHYTQKSLSLSPG
heavy: EVQLVESGGGLVKPGGSLRLSCAASGFTFSSYSMNWVRQAPGKGLEWVSSISSSSSYIYYADSVKGRFTISRDNAKNSLYLQMNSLRAEDTAVYYCARGAPIGAAAGWFDPWGQGTLVTVSSASTKGPSVFPLAPSSKSTSGGTAALGCLVKDYFPEPVTVSWNSGALTSGVHTFPAVLQSSGLYSLSSVVTVPSSSLGTQTYICNVNHKPSNTKVDKKVEPKSCDKTHTCPPCPAPELLGGPSVFLFPPKPKDTLMISRTPEVTCVVVDVSHEDPEVKFNWYVDGVEVHNAKTKPREEQYNSTYRVVSVLTVLHQDWLNGKEYKCKVSNKALPAPIEKTISKAKGQPREPQVCTLPPSRDELTENQVSLTCLVKGFYPSDIAVEWESNGQPENNYKTTPPVLDSDGSFFLYSWLTVDKSRWQQGNVFSCSVMHEALHNHYTQKSLSLSPG
light: DIQMTQSPSSVSASVGDRVTITCRASQGISSWLAWYQQKPGKAPKLLIYAASSLQSGVPSRFSGSGSGTDFTLTISSLQPEDFATYYCQQGVSFPRTFGGGTKVEIKRTVAAPSVFIFPPSDEQLKSGTASVVCLLNNFYPREAKVQWKVDNALQSGNSQESVTEQDSKDSTYSLSSTLTLSKADYEKHKVYACEVTHQGLSSPVTKSFNRGEC
notes: Trispecific F3' format: CLEC12A scFv-Fc paired with NKG2D Fab-Fc; Stressed and control samples of the stability studies are the same molecule; also called AB0237
The Kd is the concentration at which binding is half-saturated. What is called koff is the first-order rate constant of dissociation. The kon is the rate constant with which the complex forms. For B1, the Kd in assay [1] was 0.212 µM; in assay [2] it was 0.703 µM and 0.705 µM and 0.745 µM and 0.732 µM; in assay [3], 0.664 µM; in assay [4] it was 0.00169 µM. Further, the koff was 0.024 s⁻¹ in assay [1] and 0.00214 s⁻¹ in assay [4]. In addition, the values for the kon in assay [1] and in assay [4] were 113000 M⁻¹ s⁻¹ and 1.24e+06 M⁻¹ s⁻¹, respectively.
